B1: Gamma-crystallin C, residues 4 to 79; numbered along this chain, P07315 (parent)
chain: ITFYEDRAFQGRSYETTTDCPNLQPYFSRCNSIRVESGCWMLYERPNYQGQQYLLRRGEYPDYQQWMGLSDSIRSC

± gives the uncertainty stated by the source.

This data set covers variants of B1. The data set can be described thus: abundance fitness (aPCA) (normalised: wild type 0, dead -1); higher = more abundant; growth selection in yeast, the domain comes from the species named. To be noted: Homo sapiens.
For ITFYEFRAFQGRSYETTTDCPNLQPYFSRCNSIRVESGCWMLYERPNYQGQQYLLRRGEYPDYQQWMGLSDSIRSC [D6F], the abundance fitness is -0.204 ± 0.14.
As for ITFYEERAFQGRSYETTTDCPNLQPYFSRCNSIRVESGCWMLYERPNYQGQQYLLRRGEYPDYQQWMGLSDSIRSC [D6E], the abundance fitness is -0.038 ± 0.12.
With ITFYEARAFQGRSYETTTDCPNLQPYFSRCNSIRVESGCWMLYERPNYQGQQYLLRRGEYPDYQQWMGLSDSIRSC [D6A], the abundance fitness is -0.103 ± 0.11.
As to ITFYEHRAFQGRSYETTTDCPNLQPYFSRCNSIRVESGCWMLYERPNYQGQQYLLRRGEYPDYQQWMGLSDSIRSC [D6H], the abundance fitness worked out at 0.115 ± 0.23.
On to ITFYECRAFQGRSYETTTDCPNLQPYFSRCNSIRVESGCWMLYERPNYQGQQYLLRRGEYPDYQQWMGLSDSIRSC [D6C], for which the abundance fitness is 0.069 ± 0.19.
For ITFYEGRAFQGRSYETTTDCPNLQPYFSRCNSIRVESGCWMLYERPNYQGQQYLLRRGEYPDYQQWMGLSDSIRSC [D6G], the abundance fitness was -0.009 ± 0.055.
Take ITFYDDRAFQGRSYETTTDCPNLQPYFSRCNSIRVESGCWMLYERPNYQGQQYLLRRGEYPDYQQWMGLSDSIRSC [E5D]: the abundance fitness was -0.008 ± 0.15.
Turning to ITFYMDRAFQGRSYETTTDCPNLQPYFSRCNSIRVESGCWMLYERPNYQGQQYLLRRGEYPDYQQWMGLSDSIRSC [E5M], the abundance fitness worked out at 0.097 ± 0.12.
With ITFYKDRAFQGRSYETTTDCPNLQPYFSRCNSIRVESGCWMLYERPNYQGQQYLLRRGEYPDYQQWMGLSDSIRSC [E5K], the abundance fitness is -0.162 ± 0.16.
The figure for ITFYGDRAFQGRSYETTTDCPNLQPYFSRCNSIRVESGCWMLYERPNYQGQQYLLRRGEYPDYQQWMGLSDSIRSC [E5G] is -0.124 ± 0.055.
The figure for ITFYIDRAFQGRSYETTTDCPNLQPYFSRCNSIRVESGCWMLYERPNYQGQQYLLRRGEYPDYQQWMGLSDSIRSC [E5I] is 0.122 ± 0.2; for ITFYWDRAFQGRSYETTTDCPNLQPYFSRCNSIRVESGCWMLYERPNYQGQQYLLRRGEYPDYQQWMGLSDSIRSC [E5W] it is -0.209 ± 0.11.
For the variant ITFYRDRAFQGRSYETTTDCPNLQPYFSRCNSIRVESGCWMLYERPNYQGQQYLLRRGEYPDYQQWMGLSDSIRSC [E5R], the abundance fitness was determined as 0.014 ± 0.067.
On to ITFYLDRAFQGRSYETTTDCPNLQPYFSRCNSIRVESGCWMLYERPNYQGQQYLLRRGEYPDYQQWMGLSDSIRSC [E5L], for which the abundance fitness is -0.334 ± 0.16.
With ITFYQDRAFQGRSYETTTDCPNLQPYFSRCNSIRVESGCWMLYERPNYQGQQYLLRRGEYPDYQQWMGLSDSIRSC [E5Q], the abundance fitness is -0.076 ± 0.17.
Regarding ITFYVDRAFQGRSYETTTDCPNLQPYFSRCNSIRVESGCWMLYERPNYQGQQYLLRRGEYPDYQQWMGLSDSIRSC [E5V], the abundance fitness was -0.107 ± 0.078.
As to ITFYPDRAFQGRSYETTTDCPNLQPYFSRCNSIRVESGCWMLYERPNYQGQQYLLRRGEYPDYQQWMGLSDSIRSC [E5P], the abundance fitness was -0.127 ± 0.13.
The figure for ITFYTDRAFQGRSYETTTDCPNLQPYFSRCNSIRVESGCWMLYERPNYQGQQYLLRRGEYPDYQQWMGLSDSIRSC [E5T] is -0.156 ± 0.078; for ITFHEDRAFQGRSYETTTDCPNLQPYFSRCNSIRVESGCWMLYERPNYQGQQYLLRRGEYPDYQQWMGLSDSIRSC [Y4H] it is -0.364 ± 0.13; for ITFEEDRAFQGRSYETTTDCPNLQPYFSRCNSIRVESGCWMLYERPNYQGQQYLLRRGEYPDYQQWMGLSDSIRSC [Y4E] it is -0.848 ± 0.27.
As for ITFNEDRAFQGRSYETTTDCPNLQPYFSRCNSIRVESGCWMLYERPNYQGQQYLLRRGEYPDYQQWMGLSDSIRSC [Y4N], the abundance fitness is -0.631 ± 0.28.
As to ITFKEDRAFQGRSYETTTDCPNLQPYFSRCNSIRVESGCWMLYERPNYQGQQYLLRRGEYPDYQQWMGLSDSIRSC [Y4K], the abundance fitness is -0.862 ± 0.31.
For the variant ITFQEDRAFQGRSYETTTDCPNLQPYFSRCNSIRVESGCWMLYERPNYQGQQYLLRRGEYPDYQQWMGLSDSIRSC [Y4Q], the abundance fitness is -1.01 ± 0.39.
Consider ITFLEDRAFQGRSYETTTDCPNLQPYFSRCNSIRVESGCWMLYERPNYQGQQYLLRRGEYPDYQQWMGLSDSIRSC [Y4L], for which the abundance fitness is -0.984 ± 0.16.
As for ITFVEDRAFQGRSYETTTDCPNLQPYFSRCNSIRVESGCWMLYERPNYQGQQYLLRRGEYPDYQQWMGLSDSIRSC [Y4V], the abundance fitness was -1.11 ± 0.17.
The value for ITFWEDRAFQGRSYETTTDCPNLQPYFSRCNSIRVESGCWMLYERPNYQGQQYLLRRGEYPDYQQWMGLSDSIRSC [Y4W] was -0.094 ± 0.13.
Take ITFREDRAFQGRSYETTTDCPNLQPYFSRCNSIRVESGCWMLYERPNYQGQQYLLRRGEYPDYQQWMGLSDSIRSC [Y4R]: the abundance fitness was -0.99 ± 0.16.
Turning to ITFPEDRAFQGRSYETTTDCPNLQPYFSRCNSIRVESGCWMLYERPNYQGQQYLLRRGEYPDYQQWMGLSDSIRSC [Y4P], the abundance fitness was -1.12 ± 0.34.
As to ITFGEDRAFQGRSYETTTDCPNLQPYFSRCNSIRVESGCWMLYERPNYQGQQYLLRRGEYPDYQQWMGLSDSIRSC [Y4G], the abundance fitness was -0.863 ± 0.14.
Consider ITFAEDRAFQGRSYETTTDCPNLQPYFSRCNSIRVESGCWMLYERPNYQGQQYLLRRGEYPDYQQWMGLSDSIRSC [Y4A], for which the abundance fitness was -0.989 ± 0.15.
For the variant ITFSEDRAFQGRSYETTTDCPNLQPYFSRCNSIRVESGCWMLYERPNYQGQQYLLRRGEYPDYQQWMGLSDSIRSC [Y4S], the abundance fitness was -0.725 ± 0.12.
As to ITFFEDRAFQGRSYETTTDCPNLQPYFSRCNSIRVESGCWMLYERPNYQGQQYLLRRGEYPDYQQWMGLSDSIRSC [Y4F], the abundance fitness turned out to be 0.333 ± 0.4.
For the variant ITWYEDRAFQGRSYETTTDCPNLQPYFSRCNSIRVESGCWMLYERPNYQGQQYLLRRGEYPDYQQWMGLSDSIRSC [F3W], the abundance fitness was -0.789 ± 0.14.
Consider ITTYEDRAFQGRSYETTTDCPNLQPYFSRCNSIRVESGCWMLYERPNYQGQQYLLRRGEYPDYQQWMGLSDSIRSC [F3T], for which the abundance fitness is -0.753 ± 0.27.
The figure for ITSYEDRAFQGRSYETTTDCPNLQPYFSRCNSIRVESGCWMLYERPNYQGQQYLLRRGEYPDYQQWMGLSDSIRSC [F3S] is -1.01 ± 0.27.
The figure for ITVYEDRAFQGRSYETTTDCPNLQPYFSRCNSIRVESGCWMLYERPNYQGQQYLLRRGEYPDYQQWMGLSDSIRSC [F3V] is -1.08 ± 0.13.
